Assay results: the nanobody polyreactivity screen of Harvey et al. (2022)

Assay: yeast display, Sf9 membrane polyspecificity reagent, FACS + sequencing; frameworks hold sequencing errors
Outline: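 In a synthetic yeast display library (Saccharomyces cerevisiae BJ5465), nanobody expression was induced with galactose for 36–48 hours. FACS gates were set low and high (top ~1%) using anti-HA fluorescence for expression and streptavidin fluorescence for binding of the Sf9 membrane reagent. Each polyreactivity label is drawn from the gate of origin.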

Row | Sequence | polyreactivity (PSR sort gate)
1 | QVQLVESGGGLVQAGGSLRLSCAASGFTFGWYAMGWYRPAPGKERELVAAITTSGGRTNYADSVKGRFTISRDNAKNTVYLQMNSLKPEDTAVYYCNADSPYYVGGFDYWGQGTQVTVSS | low polyreactivity
2 | QVQLVESGGGLVQAGGSLRLSCAASGFTFGWYAMGWYRQSPGKERELVAAISYSGGSTYYADSVKGRFTISRDNAKNTVYLQMNSLKPEDTAVYYCNAVLRLRVDSWGQGTQVTVSS | high polyreactivity
3 | QVQLVESGGGLVQAGGSLRLSCAASGFTFGYNDMGWYRQAPGKERELVAGIRSGDDTNYADSVKGRFTISRDNAKNTVYLQMNSLKPEDTAVYYCAVGYGDYLYYDYDYWGQGTQVTVSS | low polyreactivity
4 | QVQLVESGGGLVQAGGSLRLSCAASGFTFGYNEMGWYRQAQGKERELVAGIRSGDDTNYADSVKGRFTISRDNAKNTVYLQMNSLKPEDTAVYYCPRDPQFYLHTVPDGAYNYWGQGTQVTVSS | low polyreactivity
5 | QVQLVESGGGLVQAGGSLRLSCAASGFTFGYYAMGWYRQAPGKERELVAAISWSGSSTYYSDSVKGRFTISRDNAKNTVYLQMNSLKPEATAVYYCAAELGDAYYYWGQGTQVTVSS | high polyreactivity
6 | QVQLVESGGGLVQAGGSLRLSCAASGFTFGYYAMGWYRQAPGKERELVAAITNSGGSTYYADSVKGRFTISRDNAKNTVYLQMNSLKPEDTAVYYCAAEISILPFVTPDTIYGYWGQGTQVTVSS | low polyreactivity
7 | QVQLVESGGGLVQAGGSLRLSCAASGFTFGYYAMGWYRQAPGKERELVAAITWSGGRTYYADSVKGRFTISRDNAKNTVYLQMNSLKPEDTAVYYCAVETLWQGSEYWGQGTQVTVSS | low polyreactivity
8 | QVQLVESGGGLVQAGGSLRLSCAASGFTFGYYAMGWYRQAPGKERELVATISYGGGSTYYADSVKGRFTISRDNAKNTVYLQMNSLKPEDSAVYYCAASYLVQAPVSGYVYRMYYWGQGTQVTVSS | high polyreactivity
9 | QVQLVESGGGLVQAGGSLRLSCAASGFTFGYYGMGWYRQAPGKERELVAAISWSGGSTYYADSVKGRFTISRDNAKNTVYLQMNSLKPEDTAVDYCNADYAGFYQRRYIEDDYWGQGTQVTVSS | low polyreactivity
10 | QVQLVESGGGLVQAGGSLRLSCAASGFTFGYYVMGWYRQAPGKERELVAAITSGGSTYYADSVKGRFTISRDNAKNTVYLQMNSLKREDTAVYYCNKYGVVLPGFDYWGQGTQVTVSS | high polyreactivity
11 | QVQLVESGGGLVQAGGSLRLSCAASGFTFHDYAMGWYRQAPGKERELVAAITKSGGRTYYADSVKGRFTISRDNAKNTVYLQMNSLKPEDTAVYYCAAASYRSQYDYYYWGQGTQVTVSS | high polyreactivity
12 | QVQLVESGGGLVQAGGSLRLSCAASGFTFHDYVMAWYRQAPGKERELVAAISRSGGSTYYADSVKGRFTISRDNAKHTVYLQMNSLIPEDTAVYYCAAREYTTGGWRYNYWGQGTQVTVSS | high polyreactivity
13 | QVQLVESGGGLVQAGGSLRLSCAASGFTFHNYAMGWYRQAPGKERDFVAAITRNTASTYYADSVKGRFTISRDNAKNTVYLQMNSLKPEDTAVYYCNASRVVYRQAYLYGYDYWGQGTQVTVSS | low polyreactivity
14 | QVQLVESGGGLVQAGGSLRLSCAASGFTFHNYAMGWYRQAPGKEREFVAAITRNTASTYYADSVKGRFTISRDNAKNTVYLQMNSLNPEDTAVYYCAATDKKHRTAYDSWGQGTQVTVSS | low polyreactivity
15 | QVQLVESGGGLVQAGGSLRLSCAASGFTFHVYAMGWSRQAPGKERELVAAISTGDDTTFYADSVKGRLTISRDNAKNTVYLQMNSLKPEDTAVYYCAAAYGTPYGGYDYWGQGTQVTVSS | low polyreactivity
16 | QVQLVESGGGLVQAGGSLRLSCAASGFTFHYYTMGWYRQAPGKEREFVAAISKSGGRTYYADSVKGRFTISRDNAKNTVYLQMNSLKPEDTAVYYCATVGYWRNRHDYWGQGTQVTVSS | high polyreactivity
17 | QVQLVESGGGLVQAGGSLRLSCAASGFTFIFNAMGWYRQAPGKERELVATISWGGGSTYYADSVKGRFTISRDNAKNTVYLQMNSLKPEDTAVYYCNADGYTLWYEYDYWGQGTQVTVSS | low polyreactivity
18 | QVQLVESGGGLVQAGGSLRLSCAASGFTFIGNAMGWYRQAPGKERELVAAISSSGGRTYYADSVKGRFTISRDNAKNTVDLQMNSLKPEDTAVYYCATRQYRGVYYWGQGTQVTVSS | high polyreactivity
19 | QVQLVESGGGLVQAGGSLRLSCAASGFTFIGYAMGWYRQAPGKEREFVAAITSGGSTYYADSVKGRFTISRDNAKNTVYLQMNSLKPEDTAVYYCAARSVYTASYRRVWINPQLDYWGQGTQVTVSS | high polyreactivity
20 | QVQLVESGGGLVQAGGSLRLSCAASGFTFIGYAMGWYRQAPGKERELVAAITISGGSTYYADSVKGRFTISRDNAKNTVYLQMNSLKPEDTAVYYCNVYRLAAFYSLRGYRYDYWGQGTQVTVSS | high polyreactivity
21 | QVQLVESGGGLVQAGGSLRLSCAASGFTFIQYDMGWYRQAPGKERELVAAISSSGGSTYYADSVNGRFTISRDNAKNTFYLQMNSLKPEDTGVYYCAADPWVRLEYDYWGQGTQVTVSS | low polyreactivity
22 | QVQLVESGGGLVQAGGSLRLSCAASGFTFIRNAMGWYRPAPGKERELVAAISTSGGTTYYADSVKGRFTISRDNAKNTVYLQMNSLKPEDTAVYYCNKGIGRSDPDYRYYYWGQGTQVTVSS | high polyreactivity

Row | Sequence | polyreactivity (PSR sort gate)
23 | QVQLVESGGGLVQAGGSLRLSCAASGFTFIRNAMGWYRQAPGKERELVAAISKRGGSTNYADSVKGRFTISRDNAKTTVYLLMNSLKPEDTAVYYCAADVDTRSSSGYWGQGTQVTVSS | low polyreactivity
24 | QVQLVESGGGLVQAGGSLRLSCAASGFTFIRYAMGWYRQAPGKERELVARITSGGSTYYADSVKGRFTISRDNAKNTVYLQMNSLKPEDTAVYYCNADKWYIIQGYYWPGYEYWGQGTQVTVSS | low polyreactivity
25 | QVQLVESGGGLVQAGGSLRLSCAASGFTFIRYAMGWYSQAAGKDRELVARITSSGSSTYADSVKGRFTISRDKAKNTVYLQMNSLKPEDTAVYYCAAKVHTRRRFDYWGQGTQVTVSS | high polyreactivity
26 | QVQLVESGGGLVQAGGSLRLSCAASGFTFISNAMGWYRKAPGKERELVAAISSSGGRTYYADSVKGRFTISRDNAKNTVYLQMNSLKPEDTAVYYCNADRSLLYSRKIEYDYWGQGTQVTVSS | low polyreactivity
27 | QVQLVESGGGLVQAGGSLRLSCAASGFTFISYGMGWYRQAPGKEREFVAAISYSGTGTYYADSVKVRFTISRDNAKNTVYLQMNSLKPEDTAVYYCAVYSRDFRRYDYWGQGTQVTVSS | high polyreactivity
28 | QVQLVESGGGLVQAGGSLRLSCAASGFTFIWYAMGWYRQAPGKETELVATISWNGGRTYYADSVKGRFTISRDNANNTVYLQMNSLKPEDTAVYYCAADQGVYRTYWFDYWGQGTQVAVSS | high polyreactivity
29 | QVQLVESGGGLVQAGGSLRLSCAASGFTFIYYALGWYRQAPGKERELLATISYDGGSTYYSDSVKGRFTISRDNAKNTVYLQMNSLKPEDTAVYYCNADFADDKYYLFESELEYDYWGQGTQVTVSS | low polyreactivity
30 | QVQLVESGGGLVQAGGSLRLSCAASGFTFIYYAMGWYRQAPGKERELVAAISRRGGSTYYADSVKGRFTISRDNAKNTVYLQMNSLKPEDTAVYYCAADYTSAILRSDYWGQGTQVTVSS | high polyreactivity
31 | QVQLVESGGGLVQAGGSLRLSCAASGFTFIYYAMGWYRQAPGKERELVAGISSGGRTSYADSVKGRFTISRDNAKNTVYLQMNSLKPEDTAVYYCATPVSRFRRTEYGYYYWGQGTQVTVSS | high polyreactivity
32 | QVQLVESGGGLVQAGGSLRLSCAASGFTFKFYAMGWYRQAPGKEREFVAAISHSGGRTYYADSVKGRFTISSDNAKNTVYLQLNILKPEDTAFYYCAAAEGGGLVTYDYWGQGTQVTVSS | low polyreactivity
33 | QVQLVESGGGLVQAGGSLRLSCAASGFTFKGYTMGWYRQAPGKERELVAAISRSGGRTYYADSVKGRFTISRDNAKNTVYLQMNSLKPEDTAVYYCAAVIIGGHDYWGQGTQVTVSS | high polyreactivity
34 | QVQLVESGGGLVQAGGSLRLSCAASGFTFKINGMGWYRQATGKEREFVATIRTSTGRTNYADSVKGRFTISRDNAKNTVYLQMNSLKPEDTAVYYCAATFKSGMDYWGQGTQVTVSS | high polyreactivity
35 | QVQLVESGGGLVQAGGSLRLSCAASGFTFKKNAMGWYRQAPGKERELVAAIRSGTSTKYADSVKGRFTISRDNAKNTVYLQMNSLKPEDTAVYYCAAEEPEYLATWRNRRYDYWGQGTQVTVSS | low polyreactivity
36 | QVQLVESGGGLVQAGGSLRLSCAASGFTFKSNAMGWYRQAPGKERELVAAISGSGGRTYYADSVKGRYTISRDTAKYTVYLQMNSLKPEDTAVYYCAADYPVRSYDYWGQGTQVTVSS | low polyreactivity
37 | QVQLVESGGGLVQAGGSLRLSCAASGFTFKVYNAMGWYRQAPGKERELVAAISSSVGGTYYADSVKGRFTISRDYAKNTVYLQMNSLKPEDTAVYYCATDDFTYVVAKDGDYWGQGTQVTVSS | low polyreactivity
38 | QVQLVESGGGLVQAGGSLRLSCAASGFTFKYNVMGWYIQAPGKERELVAAISSAGNTNYADSVKGRFTISRDNAKNTVYLQMNSLKPEDTAVYFCAKRRDTLYVGVEGYYWGQGTQVTVSS | high polyreactivity
39 | QVQLVESGGGLVQAGGSLRLSCAASGFTFKYYAMGWYREAPGKERELVAAISLTGGSTYYADSVKGRFTISRDNAKNTVYFQMHSLIPEDTAVNYCNAVQGRQRGWEGPYGYWGQGTQVTVST | high polyreactivity
40 | QVQLVESGGGLVQAGGSLRLSCAASGFTFKYYAMGWYRQAPGKERELVATITRSGGNTYYADSVKGRFTISRDNAKNTVYLQMNSLKPEDTAVYYCNTRRPGKYDYWGQGTQVTVSS | high polyreactivity
41 | QVQLVESGGGLVQAGGSLRLSCAASGFTFKYYVMGWYRQAPGKERELVASISKRGGSTRYADSVKGRFTISRDNAKNTVYLQMNSLKPEDTAVYYCAARSKVHRWRKRYDYWGQGTQVSVSS | high polyreactivity
42 | QVQLVESGGGLVQAGGSLRLSCAASGFTFLAYAMVWYRQAPGKERELVAAIRWSGGRTYYADSVKGRFTISRDNAKNTVYLQMNSLKPEDTAVYYCAADTRRVREYNYWGQGTQVTVSS | low polyreactivity
43 | QVQLVESGGGLVQAGGSLRLSCAASGFTFLGYVMGWYRQAPGKEREFVADITESGGRTYYADSVKGRFTISRDNAKNTVYLQMNSLKPEDTAVYYCAAELSYWGYYYSFDYWGQVTQVTVSS | low polyreactivity
